Common to all, as to conditions: 20 nM; 72 h
Series [1] deals with MCF10A. As to the kind of experiment: 5+ nucleoli phenotype percent effect (relative to siNT 0% and siKIF11 100%); higher = more cells with five or more nucleoli. The procedure: (§1)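 After 72 h, cells were fixed and stained with Hoechst and anti-fibrillarin, and nucleoli per nucleus were counted with CellProfiler. Values are plate-adjusted percent effect for the one-nucleolus and 5+ nucleoli phenotypes, normalised to siNT (0%) and to the positive controls siNOL11 or siKIF11 (100%), as the mean of biological triplicates. Percent viability is the nuclei count relative to siNT.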

Series [2] concerns MCF10A. As to the kind of experiment: one-nucleolus phenotype percent effect (relative to siNT 0% and siNOL11 100%); higher = more cells with one nucleolus (ribosome biogenesis inhibition). How it is done:
as §1

In series [3] the test system is MCF10A. Description: percent viability (nuclei count relative to siNT); higher = more viable cells. How it is done: as §1

Turning to UACUGCAUCAGGAACUGAUUGGA [hsa-miR-217], the “5+ nucleoli phenotype percent effect” value in the series on MCF10A [1] is 1.56%. The “one-nucleolus phenotype percent effect” value in the series with MCF10A [2] amounted to 0.807%. Besides, the percent viability in the series on MCF10A [3] was found to be 62.9%.

Regarding CAGGAAGGAUUUAGGGACAGGC [hsa-miR-4476], the “5+ nucleoli phenotype percent effect” value with MCF10A [1] was -8.98%. The “one-nucleolus phenotype percent effect” value in the series on MCF10A [2] is 14%. Also, the percent viability in the series with MCF10A [3] came out at 23.3%.

In the case of “UCUGGCCUUGACUUGACUCUUU [hsa-miR-3922-3p]”, the “5+ nucleoli phenotype percent effect” value with MCF10A [1] turned out to be 6.7%. Also, the “one-nucleolus phenotype percent effect” value in the series with MCF10A [2] was -2.7%. The percent viability in the series with MCF10A [3] worked out at 35.7%.

On to AAUUGCACUUUAGCAAUGGUGA [hsa-miR-367-3p], for which the “5+ nucleoli phenotype percent effect” value in the series with MCF10A [1] was determined as 18%. Also, the “one-nucleolus phenotype percent effect” value in the series on MCF10A [2] was -12.8%. Also, the percent viability in the series with MCF10A [3] was 111%.

As for “ACCAGCCUGUGUCCACCUCCAG [hsa-miR-6849-3p]”, in the series on MCF10A [1], the “5+ nucleoli phenotype percent effect” value was -31%. The “one-nucleolus phenotype percent effect” value with MCF10A [2] came to 13.6%. Also, the percent viability in the series with MCF10A [3] is 46%.

“GUGAGUGUGGAUUUGGCGGGGUU [hsa-miR-6790-5p]”: the “5+ nucleoli phenotype percent effect” value in the series on MCF10A [1] is -26%. Further, in the series on MCF10A [2], the “one-nucleolus phenotype percent effect” value came out at 18.2%. For the same sequence, the percent viability in the series with MCF10A [3] stood at 31.8%.

“UGAGACAGGCUUAUGCUGCUAU [hsa-miR-4524a-3p]”: the “5+ nucleoli phenotype percent effect” value in the series with MCF10A [1] was determined as 8.73%. For the same sequence, the “one-nucleolus phenotype percent effect” value in the series on MCF10A [2] was found to be 24.8%. For the same sequence, in the series with MCF10A [3], the percent viability is 21.6%.

Regarding “GGGCCUCUCUUGUCAUCCUGCAG [hsa-miR-6744-3p]”, in the series with MCF10A [1], the “5+ nucleoli phenotype percent effect” value was found to be 49.2%. Moreover, the “one-nucleolus phenotype percent effect” value in the series with MCF10A [2] was -21.1%. Moreover, in the series on MCF10A [3], the percent viability was determined as 81.6%.

Take AAGGUUUGGAUAGAUGCAAUA [hsa-miR-4464]: in the series with MCF10A [1], the “5+ nucleoli phenotype percent effect” value is -24.5%. For the same sequence, in the series on MCF10A [2], the “one-nucleolus phenotype percent effect” value turned out to be 6.58%. Besides, the percent viability with MCF10A [3] was 29.7%.

“AAAAGUAAUUGUGGUUUUUGC [hsa-miR-548ay-5p]”: in the series with MCF10A [1], the “5+ nucleoli phenotype percent effect” value was determined as 28.7%. Also, the “one-nucleolus phenotype percent effect” value in the series on MCF10A [2] is -28.5%. The percent viability in the series on MCF10A [3] is 134%.

Take “AGACACAUUUGGAGAGGGAACC [hsa-miR-642a-3p]”: the “5+ nucleoli phenotype percent effect” value in the series with MCF10A [1] was 16%. The “one-nucleolus phenotype percent effect” value in the series on MCF10A [2] is -16.3%. For the same sequence, the percent viability with MCF10A [3] came out at 90.2%.

Regarding “UGACGCCCCUUCUGAUUCUGCCU [hsa-miR-6786-3p]”, the “5+ nucleoli phenotype percent effect” value in the series with MCF10A [1] was -4.1%. In addition, the “one-nucleolus phenotype percent effect” value in the series on MCF10A [2] stood at 0.306%. In the series on MCF10A [3], the percent viability worked out at 50.9%.

In the case of AAAAGUAACUGCGGUUUUUGCCU [hsa-miR-548w], the “5+ nucleoli phenotype percent effect” value with MCF10A [1] amounted to 56.1%. The “one-nucleolus phenotype percent effect” value in the series on MCF10A [2] was -28.5%. The percent viability in the series on MCF10A [3] stood at 77.2%.

Take CUAGCACACAGAUACGCCCAGA [hsa-miR-585-5p]: the “5+ nucleoli phenotype percent effect” value in the series with MCF10A [1] was -45.7%. Moreover, the “one-nucleolus phenotype percent effect” value with MCF10A [2] came out at 46%. Moreover, in the series with MCF10A [3], the percent viability came to 36.5%.

With “AGAAGUAACUACGGUUUUUGCA [hsa-miR-548ao-5p]”, in the series on MCF10A [1], the “5+ nucleoli phenotype percent effect” value was found to be 27.5%. Further, the “one-nucleolus phenotype percent effect” value in the series with MCF10A [2] is -16.5%. For the same sequence, the percent viability in the series on MCF10A [3] came out at 74.5%.

For the sequence UCUGAGAGAGCUCGAUGGCAG [hsa-miR-6761-5p], in the series on MCF10A [1], the “5+ nucleoli phenotype percent effect” value came to 9.71%. For the same sequence, the “one-nucleolus phenotype percent effect” value in the series with MCF10A [2] was -17.3%. Moreover, the percent viability with MCF10A [3] was 56.8%.

Regarding UCCCUUCUUCCUGGGCCCUCA [hsa-miR-5088-3p], the “5+ nucleoli phenotype percent effect” value in the series with MCF10A [1] amounted to 70.3%. Moreover, in the series with MCF10A [2], the “one-nucleolus phenotype percent effect” value was -36.6%. For the same sequence, the percent viability in the series on MCF10A [3] worked out at 59.2%.

Turning to UGCCUGGAACAUAGUAGGGACU [hsa-miR-3116], in the series on MCF10A [1], the “5+ nucleoli phenotype percent effect” value is -20.8%. Moreover, the “one-nucleolus phenotype percent effect” value in the series on MCF10A [2] amounted to 2.45%. The percent viability in the series with MCF10A [3] is 23.8%.

Turning to CUGUGGGCUCAGCUCUGGG [hsa-miR-4265], the “5+ nucleoli phenotype percent effect” value in the series on MCF10A [1] is -38.1%. Further, the “one-nucleolus phenotype percent effect” value in the series on MCF10A [2] came to 42.3%. In the series on MCF10A [3], the percent viability turned out to be 27.1%.

On to “ACUCCAUUUGUUUUGAUGAUGGA [hsa-miR-136-5p]”, for which the “5+ nucleoli phenotype percent effect” value in the series on MCF10A [1] turned out to be 34.2%. The “one-nucleolus phenotype percent effect” value in the series with MCF10A [2] is -13%. In the series with MCF10A [3], the percent viability worked out at 107%.

Regarding UAUUCAGGAAGGUGUUACUUAA [hsa-miR-506-5p], the “5+ nucleoli phenotype percent effect” value in the series on MCF10A [1] is -1.47%. The “one-nucleolus phenotype percent effect” value with MCF10A [2] is -9.8%. In addition, in the series with MCF10A [3], the percent viability came out at 91%.

As to “AGAGGCUGAGAAGGUGAUGUUG [hsa-miR-6884-5p]”, the “5+ nucleoli phenotype percent effect” value in the series on MCF10A [1] was -24.7%. In the series with MCF10A [2], the “one-nucleolus phenotype percent effect” value is 41.6%. Further, the percent viability in the series on MCF10A [3] worked out at 22.3%.

On to UGGCUUCUCUUGCACACCCAG [hsa-miR-6815-3p], for which, in the series with MCF10A [1], the “5+ nucleoli phenotype percent effect” value was -12.3%. For the same sequence, in the series with MCF10A [2], the “one-nucleolus phenotype percent effect” value was found to be 62.9%. For the same sequence, the percent viability with MCF10A [3] turned out to be 19.9%.

Source of the values: the supplement of paper PMC10899765.
